One block for each binder: values may come before it.
How the values were obtained:
[1] = molecular target: T1, hRAGE (1-331) / human sRAGE 1-331, V#400 (human, UniProt Q15109 23-331); assay: competition ELISA on coated hRAGE (1-331); competitor biotinylated m11E6 at 0.3 µg/ml
T1 construct: also called sRAGE [RAGE (1-331)]; RAGE (antigen of the Biacore runs)
Experimental: ELISA plates (Costar 3369) were coated overnight at 4° C. with 50 μl/well of 2 μg/ml hRAGE (1-331) in 0.2 M sodium carbonate-bicarbonate buffer, pH 9.4, washed with Wash Buffer (PBS containing 0.1% Tween 20), and blocked for 1 hr at room temperature with 200 pd/well of 2% nonfat dry milk in PBS. […] After incubating the plates for 1 hr at room temperature, and washing with Wash Buffer, bound antibodies were detected using 100 μl/well of 1:10,000 dilution of HRP-conjugated streptavidin (Fitzgerald) in ELISA buffer. After incubating for 1 hr at room temperature, and washing with Wash Buffer, color development was performed by adding 100 μl/well of TMB Buffer (Zymed). After incubating for 15 min at room temperature, color development was stopped by adding 50 μl/well of IN hydrochloric acid. Absorbance was read at 490 nm.

[2] = molecular target: T1, hRAGE (1-331) / human sRAGE 1-331, V#400; assay: Biacore SPR, mAb captured via anti-human Fc, sRAGE (1-331) injected 30-0.12 nM, PBS-P buffer, 1:1 fit
Text: Biacore 2000 and Biacore T100 instruments were used to measure anti-RAGE mAb binding kinetics. The assay format for mAb affinity analysis was Fc-based capture via immobilized anti-Fc antibodies. A standard amine coupling protocol was employed to immobilize Fc-specific IgG via primary amines to the carboxy-methyl (CM) dextran surface of CM5 sensorchips (Biacore). For the study of mouse anti-RAGE mAbs, anti-mouse Fc (Biacore, anti-mouse, BR-1005-14) was used as the immobilized capture reagent and for the study of humanized anti-RAGE mAbs, anti-human Fc (Pierce 31125) was used as the immobilized capture reagent. An automated protocol, available on the Biacore 2000 and Biacore T100, was used to immobilize 8000-10000 RU of capture reagent in all 4 flowcells of the sensorchip. Briefly, the CM-dextran surfaces were activated by freshly prepared 1:1 50 mM N-hydroxysuccinimide (NHS):200 mM 3-(N,N-dimethylamino) propyl-N-ethylcarbodiimide (EDC). Then the anti-Fc IgG capture reagent (20 ug/ml in 10 mM sodium acetate, pH4.5) was applied to the surface followed by deactivation of the surface and blocking of the residual reactive sites with 1M ethanolamine (pH 8.5).
The running buffer employed was PBS-P [1×PBS (Sigma P3813), pH 7.4, 0.005% P20 surfactant (Biacore)] for the humanized antibodies. Each experimental cycle consisted of the following steps: 1) anti-RAGE mAbs were captured in flowcells 2, 3 or 4 to a level of 50-200 RU (depending on the antigen). All measurements were referenced against flowcell 1 which had no captured anti-RAGE mAb. 2) Antigen was injected through all 4 flowcells, 240 ul at 80 ul/min. After the antigen injection, dissociation was monitored for 600 seconds at 80 ul/min. 3) the anti-Fc capture surface was regenerated with low pH glycine. For kinetic determinations, antigen injections were a 3 fold dilution series from either 30 nM-0.12 nM (for sRAGE [RAGE (1-331)] and buffer only in randomized duplicates.
Data were processed using either Biacore evaluation software or Scrubber 2.0 software (BioLogic Software). Briefly, the data were double referenced by first, subtracting the signal from the reference cell and second, by subtracting the signal from buffer-only injections.

[3] = molecular target: T2, recombinant human RAGE (plate coat of the competition ELISA of Example 1.4); assay: competition ELISA on plates coated with recombinant human RAGE (2 µg/mL); competitor: biotinylated hybridoma-derived 11E6 (11E6-biotin), streptavidin-HRP, OD 450 nm; the unit comes from the axis 'Log MAbs (M)'
T2 construct: not shown: The carrier of the coated preparation, if it had one
T2 sequence (chain, as listed by the source limits assumed): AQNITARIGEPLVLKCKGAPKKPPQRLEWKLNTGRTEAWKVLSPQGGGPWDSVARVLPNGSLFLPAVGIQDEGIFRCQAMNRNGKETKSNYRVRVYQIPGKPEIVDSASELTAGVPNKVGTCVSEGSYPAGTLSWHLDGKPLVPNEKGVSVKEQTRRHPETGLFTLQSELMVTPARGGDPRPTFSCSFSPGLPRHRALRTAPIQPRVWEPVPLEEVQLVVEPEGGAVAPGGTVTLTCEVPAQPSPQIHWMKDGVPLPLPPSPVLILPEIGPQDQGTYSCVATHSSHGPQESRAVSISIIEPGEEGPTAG
Experimental: (§1) The purified chimeric anti-human RAGE monoclonal antibodies were tested for their ability to bind human RAGE in a competition ELISA. […] Equal volumes (50 μL) of each recombinant chimeric anti-human RAGE monoclonal antibodies or hybridoma-derived anti-human RAGE monoclonal antibodies and each corresponding biotinylated hybridoma-derived anti-RAGE mAbs were mixed. 50 μL of this mixture was then added to ELISA plates pre-coated with recombinant human RAGE at 2 μg/mL and incubated for 1.5 hours at room temperature. Wells were washed three times with PBS+0.05% Tween-20. Streptavidin HRP (1 mg/mL) was diluted 1:16000 in PBST+10% Superblock; 50 µL/well was added and the plates incubated for 1 hour at room temperature. Plates were washed 3 times with PBS+0.05% Tween-20. 50 µL of TMB solution (Sigma, St Louis, Mo.) was added to each well and incubated for 10 minutes at room temperature. The reaction was stopped by addition of IN sulphuric acid. Plates were read spectrophotometrically at a wavelength of 450 nm.

[4] = molecular target: T2, recombinant human RAGE (plate coat of …); assay: competition ELISA on plates coated with recombinant human RAGE (2 µg/mL); competitor: biotinylated hybridoma-derived 7F9 (7F9-biotin), streptavidin-HRP, OD 450 nm; the unit comes from the axis 'Log MAbs (M)'
Experimental: as §1

T1 sequence (Q15109 23-331): as the sequence (chain, as listed by the source limits assumed) above

B1: humanized anti-RAGE antibody h11E6.1 (antibody, V domains shown)
VH: EVQLVQSGSELKKPGASVKVSCKASGYTFTNFGMNWVRQAPGQGLEWMGYINTNTGESIYSEEFKGRFVFSLDTSVSTAYLQICSLKAEDTAVYYCARSRMVTAYGMDYWGQGTTVTVSS
VL: DIQMTQSPSSLSASVGDRVTITCKASQNVGTAVAWYQQKPGKAPKLLIYSASNRYTGVPSRFSGSGSGTDFTLTISSLQPEDFATYYCQQYSSYPLTFGQGTKLEIKR
notes: Full-length humanized antibody transiently produced in 293-6E cells
IC50 [1]: 19.7 nM

B2: humanized anti-RAGE antibody h11E6.3 (antibody, V domains shown)
VH: EVQLVQSGSELKKPGASVKVSCKASGYTFTNFGMNWVRQAPGQGLEWMGYINTNTGESIYSEEFKGRFVFSLDTSVSTAYLQICSLKAEDTAVYYCARSRMVTAYGMDYWGQGTTVTVSS
VL: EIVMTQSPATLSLSPGERATLSCKASQNVGTAVAWYQQKPGQAPRLLIYSASNRYTGIPARFSGSGSGTDFTLTISSLQSEDFAVYYCQQYSSYPLTFGQGTKLEIKR
notes: as for B1
IC50 [1]: 18.8 nM

B3: humanized anti-RAGE antibody h11E6.13 (antibody, V domains shown)
VH: EIQLVQSGAEVKKPGASVKVSCKASGYTFTNFGMNWVRQAPGQGLEWMGYINTNTGESIYSEEFKGRFTFTLDTSTSTAYMELSSLRSEDTAVYFCARSRMVTAYGMDYWGQGTSVTVSS
VL: DIQMTQSPSSLSASVGDRVTITCKASQNVGTAVAWYQQKPGKAPKLLIYSASNRYTGVPSRFSGSGSGTDFTLTISSLQPEDFATYYCQQYSSYPLTFGQGTKLEIKR
notes: as for B1
IC50 [1]: 16.8 nM

B4: humanized anti-RAGE antibody h11E6.9 (antibody, V domains shown)
VH: EVQLVQSGAEVKKPGASVKVSCKASGYTFTNFGMNWVRQAPGQGLEWMGYINTNTGESIYSEEFKGRVTMTRDTSTSTAYMELSSLRSEDTAVYYCARSRMVTAYGMDYWGQGTSVTVSS
VL: DIQMTQSPSSLSASVGDRVTITCKASQNVGTAVAWYQQKPGKAPKLLIYSASNRYTGVPSRFSGSGSGTDFTLTISSLQPEDFATYYCQQYSSYPLTFGQGTKLEIKR
notes: as for B1
IC50 [1]: 17.9 nM

B9: 11E6-recombinant (antibody, V domains shown)
VH: QIQLVQSGPELKKPGETVKISCKASGYTFTNFGMNWVKQAPGKGLKWMGYINTNTGESIYSEEFKGRFAFSLETSASTAYLQINNLKNEDTATYFCARSRMVTAYGMDYWGQGTSVTVSS
VL: DIVMTQSQKFMSTSVGDRVSITCKASQNVGTAVAWYQQRPGQSPKLLIFSASNRYTGVPDRFTGSGSGTDFTLTLSNMQPEDLADYFCQQYSSYPLTFGVGTKLELKR
notes: also called recombinant chimeric anti-human RAGE monoclonal antibody 11E6 (human IgG1/kappa)
EC50 [3]: 64.7 nM

B10: humanized anti-RAGE antibody h11E6.11 (antibody, V domains shown)
VH: EVQLVQSGAEVKKPGASVKVSCKASGYTFTNFGMNWVRQAPGQGLEWMGYINTNTGESIYSEEFKGRVTMTRDTSTSTAYMELSSLRSEDTAVYYCARSRMVTAYGMDYWGQGTSVTVSS
VL: EIVMTQSPATLSLSPGERATLSCKASQNVGTAVAWYQQKPGQAPRLLIYSASNRYTGIPARFSGSGSGTDFTLTISSLQSEDFAVYYCQQYSSYPLTFGQGTKLEIKR
notes: as for B1
IC50 [1]: 19.9 nM

B14: 7F9-recombinant (antibody, V domains shown)
VH: EEKLEESGGGLVQLGGSMKISCVASGFTLSNYWMDWVRQSPEKGLEWIAEIRLKSNYYSTHYAESVKGRFSISRDDSKGSVSLQMDNLTAEDTGIYFCARNAYWYFDVWGTGTTVTVSS
VL: DIVMTQSHKFMSTSVGDRVSATCKASQDVGTSVAWYQQKLGQSPKLLIYWTSTRHTGVPDRFTGSGSGTDFTLTISNVQSEDLADYFCQQYNNYPLTFGDGTKLELKR
notes: also called recombinant chimeric anti-human RAGE monoclonal antibody 7F9 (human IgG1/kappa)
EC50 [4]: 108 nM

The remaining binders from weak to strong by IC50 [1], led by results:

IC50 [1]: 16.1 nM
B7: humanized anti-RAGE antibody h11E6.5 (antibody, V domains shown)
VH: EIQLVQSGSELKKPGASVKVSCKASGYTFTNFGMNWVRQAPGQGLEWMGYINTNTGESIYSEEFKGRFVFSLDTSVSTAYLQICSLKAEDTAVYFCARSRMVTAYGMDYWGQGTTVTVSS
VL: DIQMTQSPSSLSASVGDRVTITCKASQNVGTAVAWYQQKPGKAPKLLIYSASNRYTGVPSRFSGSGSGTDFTLTISSLQPEDFATYYCQQYSSYPLTFGQGTKLEIKR
notes: as for B1

IC50 [1]: 15.5 nM
B5: humanized anti-RAGE antibody h11E6.7 (antibody, V domains shown)
VH: EIQLVQSGSELKKPGASVKVSCKASGYTFTNFGMNWVRQAPGQGLEWMGYINTNTGESIYSEEFKGRFVFSLDTSVSTAYLQICSLKAEDTAVYFCARSRMVTAYGMDYWGQGTTVTVSS
VL: EIVMTQSPATLSLSPGERATLSCKASQNVGTAVAWYQQKPGQAPRLLIYSASNRYTGIPARFSGSGSGTDFTLTISSLQSEDFAVYYCQQYSSYPLTFGQGTKLEIKR
notes: as for B1

IC50 [1]: 14.1 nM
B6: humanized anti-RAGE antibody h11E6.4 (antibody, V domains shown)
VH: EVQLVQSGSELKKPGASVKVSCKASGYTFTNFGMNWVRQAPGQGLEWMGYINTNTGESIYSEEFKGRFVFSLDTSVSTAYLQICSLKAEDTAVYYCARSRMVTAYGMDYWGQGTTVTVSS
VL: EIVMTQSPATLSLSPGERATLSCKASQNVGTAVAWYQQKPGQSPRLLIFSASNRYTGVPARFSGSGSGTDFTLTISSLQSEDFAVYFCQQYSSYPLTFGQGTKLEIKR
notes: as for B1

IC50 [1]: 14 nM
B12: humanized anti-RAGE antibody h11E6.15 (antibody, V domains shown)
VH: EIQLVQSGAEVKKPGASVKVSCKASGYTFTNFGMNWVRQAPGQGLEWMGYINTNTGESIYSEEFKGRFTFTLDTSTSTAYMELSSLRSEDTAVYFCARSRMVTAYGMDYWGQGTSVTVSS
VL: EIVMTQSPATLSLSPGERATLSCKASQNVGTAVAWYQQKPGQAPRLLIYSASNRYTGIPARFSGSGSGTDFTLTISSLQSEDFAVYYCQQYSSYPLTFGQGTKLEIKR
notes: as for B1

IC50 [1]: 11.3 nM
Kd [2]: 0.083 nM
koff [2]: 0.0017 s⁻¹
kon [2]: 2e+07 M⁻¹ s⁻¹
B13: humanized anti-RAGE antibody h11E6.12 (antibody, V domains shown)
VH: EVQLVQSGAEVKKPGASVKVSCKASGYTFTNFGMNWVRQAPGQGLEWMGYINTNTGESIYSEEFKGRVTMTRDTSTSTAYMELSSLRSEDTAVYYCARSRMVTAYGMDYWGQGTSVTVSS
VL: EIVMTQSPATLSLSPGERATLSCKASQNVGTAVAWYQQKPGQSPRLLIFSASNRYTGVPARFSGSGSGTDFTLTISSLQSEDFAVYFCQQYSSYPLTFGQGTKLEIKR
notes: as for B1

IC50 [1]: 10.8 nM
Kd [2]: 0.033 nM
koff [2]: 0.00084 s⁻¹
kon [2]: 2.5e+07 M⁻¹ s⁻¹
B8: humanized anti-RAGE antibody h11E6.8 (antibody, V domains shown)
VH: EIQLVQSGSELKKPGASVKVSCKASGYTFTNFGMNWVRQAPGQGLEWMGYINTNTGESIYSEEFKGRFVFSLDTSVSTAYLQICSLKAEDTAVYFCARSRMVTAYGMDYWGQGTTVTVSS
VL: EIVMTQSPATLSLSPGERATLSCKASQNVGTAVAWYQQKPGQSPRLLIFSASNRYTGVPARFSGSGSGTDFTLTISSLQSEDFAVYFCQQYSSYPLTFGQGTKLEIKR
notes: as for B1

IC50 [1]: 9.2 nM
Kd [2]: 0.05 nM
koff [2]: 0.0014 s⁻¹
kon [2]: 2.8e+07 M⁻¹ s⁻¹
B11: humanized anti-RAGE antibody h11E6.16 (antibody, V domains shown)
VH: EIQLVQSGAEVKKPGASVKVSCKASGYTFTNFGMNWVRQAPGQGLEWMGYINTNTGESIYSEEFKGRFTFTLDTSTSTAYMELSSLRSEDTAVYFCARSRMVTAYGMDYWGQGTSVTVSS
VL: EIVMTQSPATLSLSPGERATLSCKASQNVGTAVAWYQQKPGQSPRLLIFSASNRYTGVPARFSGSGSGTDFTLTISSLQSEDFAVYFCQQYSSYPLTFGQGTKLEIKR
notes: as for B1
